Test [1] deals with ΔN28-CofB (enterotoxigenic Escherichia coli (ETEC)). Put plainly: ITC, peptide titrated into ΔN28-CofB. (Isothermal titration calorimetry measures the heat released or taken up as one component is titrated into another.)
Test [2] shares this target. Put plainly: ITC.
The target is the same in test [3]. Put plainly: ITC, CofJ titrated into ΔN28-CofB, 25° C.

By Kd is commonly meant the constant that tells how readily two partners part at equilibrium.

With CofJ^1-24 peptide, the Kd in test [1] was 4000 nM.

In turn, “CofJ^1-24-GCN4 inhibitory peptide (designed binder)” returned a fold stronger binding affinity than CofJ to ΔN28-CofB in test [2] of 5 fold. In test [1], this substance had a Kd of 40 nM.

Regarding CofJ^4-16 peptide, the Kd in test [1] was found to be 4000 nM.

In the case of “CofJ^4-16-GCN4 inhibitory peptide (designed binder)”, the fold stronger binding affinity than CofJ to ΔN28-CofB in test [2] amounted to 2.5 fold. For the same substance, in test [1], the Kd stood at 80 nM.

For the substance secretory protein CofJ, the Kd in test [3] came out at 200 nM.

Values taken from patent US20190284246A1.
